Measured values from patent US11827701B2, “IL-6 binding molecules” (argenx BV, priority 2012, dated 2023).
Changes are numbered by the printed parent chain. Values joined by “and” are separate entries in the source; they are usually repeats but may differ in a detail not shown here. Equal values may be shown once. Each block holds one molecule with its values, some of them ahead of it.

What was measured:
[1] = test system: induced psoriatic lesions; assay: Humanized mouse psoriasis xenograft model (epidermal ridge thickness); assay type: in vivo; conditions: mean±s.e.m.; BNX mice
Procedure: A mouse xenograft model was employed to evaluate the prophylactic efficacy of clone 68F2 on the development of induced psoriatic lesions. Specifically, BNX mice were transplanted with 5 mm diameter full-thickness skin biopsies from non-involved skin from psoriasis patients (1 per mouse). After 3 weeks, the transplants were injected with 0.5×10^6 activated PBMCs. Treatment of mice with clone 68F2, anti-TNF antibody (Remicade), or betamethasone dipropionate (positive control) was begun 1 day before the activated cells were injected into the transplants.
Treatment efficacy was determined by epidermal ridge thickness, as measured by light microscopy. Significance between groups was analyzed statistically using analysis of variance (ANOVA) followed by post-hoc Least Square Difference (LSD) tests to establish statistical significance differences between treatment groups. A value of p<0.05 denoted a significant difference between groups.

human IL-6 [2] = target: T1, human IL-6 (Homo sapiens, UniProt P05231); assay: IL-6 neutralizing bioassay, 7TD1 cell proliferation; assay type: cell-based; conditions: relative to 68F2
T1 construct: host or cells: IL-6 added from outside to murine 7TD1 hybridoma cells
T1 sequence (P05231 30-212): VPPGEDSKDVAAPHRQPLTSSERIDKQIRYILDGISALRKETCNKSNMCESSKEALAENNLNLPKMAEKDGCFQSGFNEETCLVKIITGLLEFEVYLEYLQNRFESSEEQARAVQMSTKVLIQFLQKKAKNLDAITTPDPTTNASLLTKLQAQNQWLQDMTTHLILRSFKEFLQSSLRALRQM
Procedure: The in vitro efficacy of clones 133E5, 133A9, 133H2, 111B1, 104C1, 129D3, 68F2, 61H7, were also determined using a cell-based neutralizing bioassay using the 7TD1 cell line, essentially as described in Van Snick et al. PNAS; 83, :9679 (1986), which is hereby incorporated by reference in its entirety. 7TD1 cells are a murine hybridoma cell line formed by fusion of the mouse myeloma cell line Sp2/0-Ag14 with spleen cells from a C57BL/6 mouse immunized with Escherichia coli lipopolysaccharides three days before fusion. The 7TD1 cell line is dependent on IL-6 for its growth and IL-6 withdrawal leads to cell death by apoptosis.
Briefly, 7TD1 cells (7.10E3) were incubated for 2-4 h in RPMI1640 medium+10% FCS before addition of IL-6 (75 pg/ml final concentration) in microtiter plates (200 ul final volume). The cells were incubated 3 days at 37C, before washing with PBS and addition of 60 ul of substrate solution (p-nitrophenyl-N-acetyl-β-D-glucosaminide (Sigma N-9376); 7.5 mM substrate in 0.05 M NaCitrate pH 5; 0.25 vol % triton X-100) for 4 h. The enzymatic reaction was stopped with 90 ul of stop solution (100 mM glycine+10 mM EDTA pH 10.4) and OD at 405 nm measured.
The VH and VL of the germlined versions of 68F2 were recloned in pUPE Heavy Chain and Light Chain expression vectors, respectively, for transient expression of full-length IgG1 antibodies. After transient expression in HEK293E cells, IgG1 antibodies were purified with protein A and quantified by measurement of OD280. Table 19 below summarizes the production levels of the germlined derivatives together with the levels of the 68F2 parental antibody. Potencies (in pM) were also measured in a 7TD1 based proliferation assay for each antibody.

human IL-6 [3] = target: T1, human IL-6; assay: IL-6 neutralizing bioassay, B9 cell proliferation ([3H]thymidine); assay type: cell-based; conditions: B9 cells; relative to 68F2 average IC50
Procedure: The in vitro efficacy of clones 129D3, 68F2, 61H7, 133A9, 133H2, 133E5 and 132E7 were determined using a cell-based neutralizing bioassay using the B9 cell line, essentially as described in Helle et al. 1988, Eur. J. Immunol 18; 1535-1540. B9 cells are derived from the murine B cell hybridoma cell line B13.29, which require IL-6 for survival and proliferation and respond to very low concentrations of human IL-6. […] B9 cells were seeded in IL-6-free medium at 5000 cells/200 microl in flat-bottom wells in the presence of IL-6, with and without antibodies. Proliferation was measured by a [3H]thymidine pulse at 64-72 h.

[4] = target: biotinylated (prokaryotic) IL-6 (Homo sapiens, UniProt P05231); assay: Surface plasmon resonance (Biacore), biotinylated IL-6 captured on streptavidin sensor chip; assay type: binding; conditions: purified Fab
biotinylated (prokaryotic) IL-6, sequence (P05231 30-212): as above
Procedure: (§1) The binding kinetics of IL-6-specific Fabs that were able to cross-compete with the B-E8 antibody was assessed using surface plasmon resonance (Biacore). Specifically, biotinylated (prokaryotic) IL-6 was captured on a streptavidin biacore sensor chip (CM5-SA) and different concentrations of purified Fabs were injected during 3 minutes following by a 5 minute wash with buffer. From the washing phase the off-rate (kd) was determined, while from the injection phase the on-rate (ka) was calculated using the concentration and off-rate as parameters. […] The binding kinetics of antagonistic purified Fabs (Table 3) and periplasmic fractions of Fab-expressing bacteria (Table 4) were also evaluated by surface plasmon resonance (Biacore) using both bacterially and eukaryotically produced human IL-6 directly coated on a CM5 chip. The Fabs tested had off-rates between 6×10^−4 and 2×10^−5 s^−1.

[5] = target: T2, eukaryotically produced human IL-6 (Homo sapiens, UniProt P05231); assay: Surface plasmon resonance (Biacore), eukaryotically produced human IL-6 coated on CM5 chip; assay type: binding
T2 construct: purchased Humanzyme HZ-1044; host or cells: Human Embryonic kidney cells
T2 sequence (P05231 30-212): as above
Procedure: as §1
(§2) VL chain shuffling was used to improve the affinity of the Fabs 17F10, 18C7, 18C9, 18C11, 20A4, 29B11, 16D2 and 28A6. In this method, the heavy chain of these clones (as a VHCH1 fragment) was reintroduced into the primary phagemid-light chain library (see Example 1). Affinity selections were performed to select for chain shuffled Fabs with an improved affinity for IL-6. The binding kinetics of chain shuffled Fabs were evaluated by surface plasmon resonance (Biacore) using both bacterially and eukaryotically produced human IL-6, and cynomolgus monkey IL-6 (Tables 5-7). The VH and VL amino acid sequences of exemplary IL-6-specific Fabs selected by the VL chain shuffling method are set forth in Table 14 below.
(§3) VH chain shuffling was also used to improve the affinity of the Fab 24D10. In this method, the light chain of 24D10 was reintroduced into the primary phagemid-heavy chain library (see Example 1) and selected using an off-rate assay. In this type of selection, the phage were allowed to bind to antigen on a substrate for 1.5 to 2 hours. At round 2, after 15 washes with PBS-Tween, an additional wash was performed with the presence of excess soluble IL-6. […] This procedure avoids re-binding of such phage to the coated target. […] The binding kinetics of chain shuffled Fabs and the benchmark antibodies, BE8 and GL18, were evaluated by surface plasmon resonance (Biacore) using both bacterially and eukaryotically produced human IL-6 (Tables 8 and 9). The VH and VL amino acid sequences of exemplary IL-6-specific Fabs selected by the VH chain shuffling method are set forth in Table 14 below. […]

[6] = target: T3, bacterially produced human IL-6 (Homo sapiens, UniProt P05231); assay: Surface plasmon resonance (Biacore), bacterially produced human IL-6 coated on CM5 chip; assay type: binding
T3 construct: His
T3 sequence (P05231 30-212): as above
Procedure: as §1, §2, §3

cynomolgus monkey IL-6 = target: T4, cynomolgus monkey IL-6 (Macaca fascicularis, UniProt P79341); assay: Surface plasmon resonance (Biacore), cynomolgus monkey IL-6; assay type: binding
T4 construct: His
T4 sequence (P79341 28-212): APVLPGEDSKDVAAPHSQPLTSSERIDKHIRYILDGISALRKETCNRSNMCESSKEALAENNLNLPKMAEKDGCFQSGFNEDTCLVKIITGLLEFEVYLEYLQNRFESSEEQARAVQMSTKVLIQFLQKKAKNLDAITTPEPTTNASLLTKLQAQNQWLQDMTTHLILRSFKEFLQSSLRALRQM
Procedure: as §2

[7] = euk, periplasmic fractions, 29B11 chain shuffled
[8] = bact, periplasmic fractions, 29B11 chain shuffled
[9] = cy/cyno, periplasmic fractions, 29B11 chain shuffled

Molecule: CCC(=O)OCC(=O)[C@@]1(OC(=O)CC)[C@@H](C)C[C@H]2[C@@H]3CCC4=CC(=O)C=C[C@]4(C)[C@@]3(F)[C@@H](O)C[C@@]21C [betamethasone, betamethasone dipropionate]
- epidermal ridge thickness [1]: 83 μm

Molecule: Remicade: anti-TNF antibody
- epidermal ridge thickness [1]: 125 μm

B1: 129D3 (17.06) (antibody, V domains shown)
VH: EVQLQESGPGLVKPSQTLSLTCTVSGGSITSRYYAWSWIRQPPGKGLEWIGVIDYDGDTYYSPSLKSRVSISWDTSKNQFSLKLSSVTPADTAVYYCARDPDVVTGFHYDYWGQGTMVTVSS
VL: QSALTQPPSVSGTPGQSVTISCAGANNDIGTYAYVSWYQQLPGTAPKLMIYKVTTRASGIPDRFSGSKSGNTASLTISGLQAEDEADYYCASYRNFNNAVFGTGTKLTVL
- Rel. Potency (human IL-6 [2]; Exp 22.06 (7TD1)): 1.02

B2: 127E2 (17.06) (antibody, V domains shown)
VH: B1 VH with S31T, S70T, W73V, K83Q, P89A, A90E, M117Q
VL: B1 VL with T13S, S17T, L41P, M49L, I60V, T103G, K106H
- Rel. Potency (human IL-6 [2]; Exp 29.06 (7TD1)): 0.37

B3: 68F2 (#12.9) (antibody, V domains shown)
VH: B1 VH with S31T, I50M, V69T, K83Q, A90E, M117Q
VL: QSALTQPPLVSGTPGQTVTISCAGANNDIGTYAYVSWYQQLPGTAPKLLIYKVTTRASGIPSRFSGSKSGNTASLTISGLQSEDEADYYCASYRNFNNAVFGRGTHLTVLG
- Rel. Potency (human IL-6 [2]; Exp 7.07 (7TD1)): 0.93
- Rel. Potency (human IL-6 [2]; Exp 29.06 (7TD1)): 1.08

B4: 127E2 (24.06) (antibody, V domains shown)
VH: B1 VH with S31T, S70T, W73V, K83Q, P89A, A90E, M117Q
VL: B1 VL with T13S, S17T, L41P, M49L, I60V, T103G, K106H
- Rel. Potency (human IL-6 [2]; Exp 22.06 (7TD1)): 0.58

B5: 129F2 (17.06) (antibody, V domains shown)
VH: B1 VH with S70T, P89A, A90E
VL: B1 VL with S17T, A82S, T103G
- Rel. Potency (human IL-6 [2]; Exp 22.06 (7TD1)): 1.14

- Rel. Potency (human IL-6 [3]): 0.8
B6: 68F2 (12.9) (antibody, V domains shown)
VH: B1 VH with S31T, I50M, V69T, K83Q, A90E, M117Q
VL: B3 VL

B7: 128G3 (17.06) (antibody, V domains shown)
VH: B1 VH with S31T, V69T, S70T, W73V, A90E
VL: B1 VL with T13A, S17T, M49L, I60V, T76A, T103G, K106H
- Rel. Potency (human IL-6 [2]; Exp 22.06 (7TD1)): 0.60
- Rel. Potency (human IL-6 [2]; Exp 29.06 (7TD1)): 0.52

- Rel. Potency (human IL-6 [3]): 1.3
B8: 68F2 (A8.10) (antibody, V domains shown)
VH: B1 VH with S31T, I50M, V69T, K83Q, A90E, M117Q
VL: B3 VL

B9: 68F2 (Large batch) (antibody, V domains shown)
VH: B1 VH with S31T, I50M, V69T, K83Q, A90E, M117Q
VL: B3 VL
- Rel. Potency (human IL-6 [2]; Exp 29.06 (7TD1)): 0.43

- KA [4]: 4.36e+07 M⁻¹
- Rmax [4]: 23.3 RU
- ka [4]: 130000 M⁻¹ s⁻¹
- kd [4]: 0.00298 s⁻¹
- KA [5, 7]: 1.83e+09 M⁻¹
- ka [5, 7]: 187000 M⁻¹ s⁻¹
- kd [5, 7]: 0.000102 s⁻¹
- KA [6, 8]: 1.91e+09 M⁻¹
- ka [6, 8]: 251000 M⁻¹ s⁻¹
- kd [6, 8]: 0.000131 s⁻¹
- KA (cynomolgus monkey IL-6; [9]): 1.51e+08 M⁻¹
- ka (cynomolgus monkey IL-6; [9]): 113000 M⁻¹ s⁻¹
- kd (cynomolgus monkey IL-6; [9]): 0.000746 s⁻¹
B10: 29B11: antagonistic IL-6-specific Fab clone from immunized llama (antibody, listed as Lama glama, V domains shown)
VH: EVQLVESGGGLVQPGGSLRLSCAASGFTFSSYAMSWVRQAPGKGLEWVSRISSGGISTYYADSVKGRFTISRDNAKNTLYLQMNSLKPEDTAVYYCVRYAWGVQWAFDFWGQGTQVTVSS
VL: QSVLTQPPSVSGSPGQTVTISCAGTSEDVGYGNYVSWYQQLPGMAPKLLIYDVNKRASGIADRFSGSKSGNTASLTISGLQSEDEADYYCASYRRTIDNIFGGGTHLTVLG

- Rel. Potency (human IL-6 [3]): 0.4
B11: 61H7 (12.8) (antibody, V domains shown)
VH: EVQLVESGGGLVQPGGSLRLSCAASGFTFSSYRMYWVRQPPGKGLEWVSAISAGGGSTYYGDSVKGRFTISRDNAKNTVYLQMNSLKPEDTAVYYCANRAGWGMGDYWGQGTQVTVSS
VL: QTVVTQEPSLSVSPGGTVTLTCGLSSGSVTASNYPGWFQQTPGQAPRALIYSTNDRHSGVPSRFSGSISGNKAALTITGAQPEDEADYYCALDIGDITEFGGGTHLTVLG

- Rel. Potency (human IL-6 [3]): 0.5
B12: 61H7 (A8.11) (antibody, V domains shown)
VH: B11 VH
VL: B11 VL

- KA [4]: 5.7e+07 M⁻¹
- Rmax [4]: 43.9 RU
- ka [4]: 105000 M⁻¹ s⁻¹
- kd [4]: 0.00185 s⁻¹
- Koff eukIL-6 ([5]; purified chain-shuffled Fabs): 0.001 s⁻¹ and 0.00082 s⁻¹
- Koff HIS-huIL-6 ([6]; purified chain-shuffled Fabs): 0.0011 s⁻¹
- Koff HIS-cyIL-6 (cynomolgus monkey IL-6; purified chain-shuffled Fabs): 0.00063 s⁻¹ and 0.00069 s⁻¹
B13: 18C7: antagonistic IL-6-specific Fab clone from immunized llama (antibody, listed as Lama glama, V domains shown)
VH: EVQLVESGPGLVKPSQTLSLTCTVSGGSITASFDAWSWIRQPPGKGLEWMGVIAYDGSTYYSPSLKSRTSISRDTSKNQFSLQLSSVTPEDTAVYYCARKSSWLIGYGMDYWGKGTLVTVSS
VL: QAGLTQPSALSVTLGQTAKITCQGGSLGSSYAHWYQQKPGQAPVLVIYDDDSRPSGIPERFSGSSSGGRATLTISGAQAEDEGDYYCQSADSSGNAAVFGGGTHLTVLG
